Results on one molecule are retold here after patent US20260234700, “MUTANT CAS12J ENDONUCLEASES” (University of Copenhagen, published 2026).

This series deals with T1, CasΦ3 (Cas12j-3) (Biggiephage).
T1 chain: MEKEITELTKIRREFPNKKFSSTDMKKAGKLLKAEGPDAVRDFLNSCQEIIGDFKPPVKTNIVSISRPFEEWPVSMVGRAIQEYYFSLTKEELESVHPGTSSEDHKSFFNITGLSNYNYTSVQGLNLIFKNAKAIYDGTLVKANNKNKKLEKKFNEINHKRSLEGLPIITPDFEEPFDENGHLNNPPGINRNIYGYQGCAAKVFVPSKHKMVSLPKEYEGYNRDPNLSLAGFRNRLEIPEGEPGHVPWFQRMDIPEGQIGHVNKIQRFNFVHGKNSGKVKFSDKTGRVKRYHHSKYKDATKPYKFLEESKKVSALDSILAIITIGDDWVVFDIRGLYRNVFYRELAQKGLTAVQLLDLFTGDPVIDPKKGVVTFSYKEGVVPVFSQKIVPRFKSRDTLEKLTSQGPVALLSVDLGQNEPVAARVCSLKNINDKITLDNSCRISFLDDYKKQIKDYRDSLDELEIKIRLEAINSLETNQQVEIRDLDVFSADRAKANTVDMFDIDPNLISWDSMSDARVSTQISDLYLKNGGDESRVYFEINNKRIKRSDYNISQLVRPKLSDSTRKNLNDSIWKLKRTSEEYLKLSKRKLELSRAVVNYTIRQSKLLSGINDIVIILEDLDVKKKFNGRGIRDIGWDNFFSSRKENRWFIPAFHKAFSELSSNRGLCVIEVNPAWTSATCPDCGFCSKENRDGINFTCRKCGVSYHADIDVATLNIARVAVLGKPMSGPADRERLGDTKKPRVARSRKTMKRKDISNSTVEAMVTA
The series is described as follows: structure; cryo-EM 2.7 Å R-loop product complex; PAM TTC; Ni2+. The following applies: tags: C-terminal His6. On the procedure:
For the preparation of the Cryo-EM sample, Ni²⁺ was used as a catalytic ion instead of Mg²⁺ due to the higher yield obtained with this metal. CasΦ3 RNP was prepared as described before. 25 nmol of RNP and 37 nmol of unlabeled dsDNA substrate were incubated in 25 ml of MonoQ A buffer (20 mM HEPES pH7.5, 200 mM KCl, 1 mM NiSO₄, 0.5 mM TCEP) for 2 h at 20° C. to allow DNA cleavage. The product of the reaction was loaded in a MonoQ column equilibrated with MonoQ A buffer, and CasΦ3 R-loop complex was separated from the RNP and the unbound DNA substrate by a salt gradient elution using MonoQ B buffer (20 mM HEPES pH7.5, 2 M KCl, 1 mM NiSO₄, 0.5 mM TCEP). CasΦ3 R-loop eluted at 16-20% of MonoQ buffer B […]. […] 2.5 μL of freshly purified CasΦ3 R-loop complex (Absorbance_{260 nm} of ~1.6) was applied to UltrAuFoil 300 mesh R0.6/1.0 holey grids (Quantifoil), glow-discharged for 60 s at 10 mA (Leica EM ACE200), and plunge-frozen in liquid ethane (pre-cooled with liquid nitrogen) using a Vitrobot Mark IV (FEI, Thermo Fisher Scientific) using the next conditions: blotting time 3 s, 100% humidity and 4° C.
We reconstituted and characterized a functional CasΦ3-crRNA complex (FIG. 5) and determined the structure of the enzyme after severing a target dsDNA by cryo-EM (FIG. 1). […]

B1: CasΦ3 crRNA ; target dsDNA with TTC PAM (NT/T strands) (ssRNA ; dsDNA)
RNA: UAUUGAUUGCCCAGUACGCUGGGACAGCUGGUAAUGGGAUACCUU
DNA 1: GTAATTCAGCTGGTAATGGGATACCTTGTGCTACAGC
DNA 2: GCTGTAGCACAAGGTATCCCATTACCAGCTGAATTAC
Take B1: the binding result is given as “binds”.
